Data from PMC7954794, “Protein context shapes the specificity of SH3 domain-mediated interactions in vivo” (Nature Communications, 2021).

B1: YNL307C (protein, UniProt P21965 2-375, looked up)
Protein kinase MCK1: STEEQNGVPLQRGSEFIADDVTSNKSNNTRRMLVKEYRKIGRGAFGTVVQAYLTQDKKNWLGPFAIKKVPAHTEYKSRELQILRIADHPNIVKLQYFFTHLSPQDNKVYQHLAMECLPETLQIEINRYVTNKLEMPLKHIRLYTYQIARGMLYLHGLGVCHRDIKPSNVLVDPETGVLKICDFGSAKKLEHNQPSISYICSRFYRAPELIIGCTQYTTQIDIWGLGCVMGEMLIGKAIFQGQEPLLQLREIAKLLGPPDKRFIFFSNPAYDGPLFSKPLFSGSSQQRFEKYFGHSGPDGIDLLMKILVYEPQQRLSPRRILAHQFFNELRNDDTFLPRGFTEPIKLPNLFDFNDFELQILGEFADKIKPTKVAE
B2: YNL229C (protein, UniProt P23202 2-354, looked up)
Transcriptional regulator URE2: MNNNGNQVSNLSNALRQVNIGNRNSNTTTDQSNINFEFSTGVNNNNNNNSSSNNNNVQNNNSGRNGSQNNDNENNIKNTLEQHRQQQQAFSDMSHVEYSRITKFFQEQPLEGYTLFSHRSAPNGFKVAIVLSELGFHYNTIFLDFNLGEHRAPEFVSVNPNARVPALIDHGMDNLSIWESGAILLHLVNKYYKETGNPLLWSDDLADQSQINAWLFFQTSGHAPMIGQALHFRYFHSQKIASAVERYTDEVRRVYGVVEMALAERREALVMELDTENAAAYSAGTTPMSQSRFFDYPVWLVGDKLTIADLAFVPWNNVVDRIGINIKIEFPEVYKWTKHMMRRPAVIKALRGE
B3: YNL084C (protein, UniProt P39013 1-349, looked up)
Actin cytoskeleton-regulatory …: MPKLEQFEIKKYWQIFSGLKPIENKVNHDQVLPILYNSKLDSSVLNKIWFLADIDDDDNLDFEEFVICMRLIFDMVNKNISSVPDELPDWLIPGSKVNLIKERKKRKQIENADLPPKKEIKVDWYMSPDDLNQYEKIYNSCAKLTDGTITFNELSTKLSTKFFNISKTDLNKVWSLINPQNLPSIDRDPTFYFIHCLRQRNDLGAEIPASLPNSLAEVCNKKQLSYDLRSSQPPTKRKEEANEVDNLRDNGQNSSSDSSGSNVLSNEDSIKQKYASLTDDQVANMREQLEGLLNYKKSEKTQGGSKLSKRINIRSITDDLDNIEQQVEVLENYLNNKRHELQALQAEIN
B4: YML035C (protein, UniProt P15274 1-810, looked up)
AMP deaminase: MDNQATQRLNDLSLEPAPSHDEQDGSGLVIDIDQRKIGDEQAGVVVDDETPPLEQQDSHESLAADSRNANFSYHENQQLLENGTKQLALDEHDSHSAILEQPSHSTNCSSSNIAAMNKGHDSADHASQNSGGKPRTLSASAQHILPETLKSFAGAPVVNKQVRTSASYKMGMLADDASQQFLDDPSSELIDLYSKVAECRNLRAKYQTISVQNDDQNPKNKPGWVVYPPPPKPSYNSDTKTVVPVTNKPDAEVFDFTKCEIPGEDPDWEFTLNDDDSYVVHRSGKTDELIAQIPTLRDYYLDLEKMISISSDGPAKSFAYRRLQYLEARWNLYYLLNEYQETSVSKRNPHRDFYNVRKVDTHVHHSACMNQKHLLRFIKHKLRHSKDEKVIFRDGKLLTLDEVFRSLHLTGYDLSIDTLDMHAHKDTFHRFDKFNLKYNPIGESRLREIFLKTNNYIKGTYLADITKQVIFDLENSKYQNCEYRISVYGRSLDEWDKLASWVIDNKVISHNVRWLVQIPRLYDIYKKTGIVQSFQDICKNLFQPLFEVTKNPQSHPKLHVFLQRVIGFDSVDDESKVDRRFHRKYPKPSLWEAPQNPPYSYYLYYLYSNVASLNQWRAKRGFNTLVLRPHCGEAGDPEHLVSAYLLAHGISHGILLRKVPFVQYLYYLDQVGIAMSPLSNNALFLTYDKNPFPRYFKRGLNVSLSTDDPLQFSYTREPLIEEYSVAAQIYKLSNVDMCELARNSVLQSGWEAQIKKHWIGKDFDKSGVEGNDVVRTNVPDIRINYRYDTLSTELELVNHFANFKRTIEEK
B5: YNL106C (protein, UniProt P50942 1-1183, looked up)
Polyphosphatidylinositol …: MKILLSKQQTRKIAIVSETHGLVFRPINSKNSRRSTCAVELVPKAELNGNGFRRLSNHEIYGFIGLIEIEGLMFIATITGKSKVAQPIPNKTVNKIYAVDFFCLNNSKWDFMDIDSSGYPIVTNDGDFAISSPPSISTHSSRSSLRSSSSRSLNAQEQAPKHPCHELRKLLSNGSFYYSTDFDLTCTLQKRGFTEHSLSFDDFDREFMWNSFLMDEIITYRDRLDVTAKELLDQRGFLTTVIRGFAETIFSYINRLKVGLTIISRQSWKRAGTRFNARGIDDDGHVANFVETEMIMYSSQYCYAFTQIRGSLPIFWEQDTSLISPKIQITRSVEATQPTFDEHFIRLFKKYGPVHIINLLSTKSSEIQLSRRYKEQLKNSEKMKIGRDVFLTSFDFHRETSQDGFAAASRIIPKIRNTILDAGYFSYDVKEGRLISEQDGVFRTNCLDCLDRTNLIQQTISLAVFKLFLEDFRLVKPSSFIDDNEFVQKVNALWADNGDQISQIYTGTNALKSSYSRKGKMSFSGALSDATKSVSRMYINNFVDKGKQQNIDTLLGKLPHQQVVELYDPICEYVNERLLESEEKFTTHSNINLFVGTFNVNGNSRRADLSKWLFPIGDKFKPDVVVLGLQEVIELTAGSILNADYTKSSFWETMVTDCLNQYEEKYLLLRVEQMSSLLILFFARSDRAYNIKEVGGSTKKTGFGGITGNKGAVAIRFDYGATSFCFVNTHLSAGASNIDERRNDYNNIYRNITFPRSKTIPHHDSLFWLGDLNYRITLTNDEVRRELRAQKDGYIDRLLQYDQLTQEINEGVVFQGFKEPTLQFRPTYKYDYGTDNYDTSEKARTPSWTDRIIYKGENLHPLAYSDAPLKISDHKPVYAAYRANVKFVDEKEKLNLVEKLYAEYKNTHPEALTTGPDELSHARMEKQKESIPLDATVQSAGIKLIDLDDTSSCVSPLLSGPSPQPSVVGPGGLSNVSPDKSKLNVLPPPPPTSRHNKEPSSKLLSPTKEISIVSVSPRKGESNLPALERHSTPKPLPPVPALSLSKPVSLQKSSSELQHAKETIDNGKIVPRPCPPIRRKSSTAPDEISTSTKNSGVSTTEDPEPAKASTKPEKPPVVKKPHYLSVAANKLNTSQEHSIKVSPSNSKSEEELPCKKKSKPKVPAKNPELEKLSVHPLKPCDPN

What was measured:
[1] = test system: 575 putative partners (preys) of 22 WT SH3-containing proteins; experiment: DHFR-PCA on solid medium, WT and SH3-deleted baits (Fig. 1B); assay type: cell-based, Saccharomyces cerevisiae; parameters: key to Score: 0: SH3-independent; 1: SH3-dependent PPIs; 2: SH3-inhibited PPIs; settings: for medrep (log2 median colony size normalized to plate background, PCA score): label = prey; for Ratio (SH3-deleted/WT medrep): only significant differences shown, PPIs completely lost have a ratio of 0.1, gained PPIs 2.5
Text: To assess the requirement of SH3 domains for PPIs in vivo, we first measured binary interactions between 22 WT SH3-containing proteins (Supplementary Fig. 1A) as baits and 575 putative partners from their interconnected signaling networks using the dihydrofolate reductase protein–fragment complementation assay (DHFR-PCA) in the budding yeast Saccharomyces cerevisiae. About 33% (202/607) of the PPIs detected were described before, mostly by direct methods (Supplementary Fig. 1B, C)[11]. We repeated the experiments with baits in which the SH3s were individually replaced with a flexible linker by genome editing (SH3 domain deletion/stuffing, Fig. 1A). The stuffer DNA sequence ([…]) codes for a small flexible poly-Gly with Ser peptide ([…]) that is inspired by previous experiments[12],[13]. About a third of the SH3-containing protein interactome is qualitatively or quantitatively SH3-dependent (171 PPIs out of 607, Fig. 1B and Supplementary Fig. 1B, C). We validated the vast majority of the quantitative changes in low-throughput experiments and excluded that this is simply due to changes in protein abundance in most cases (Supplementary Fig. 1D–G). SH3-binding motifs[14] are more frequent in the SH3-dependent PPI partners when compared to sequences from random proteins, SH3-independent PPI partners or PPI partners that are stronger or gained following SH3 deletions (p values = 1.5 × 10^−17, 0.0038 and 2.1 × 10^−08, respectively; Mann–Whitney test, one-tailed, Fig. 1C). The changes we measure are therefore enriched for PPIs that depend on the direct interactions of the domains with the PPI partners.
The complete list of strains, primers, and gRNAs used in this study can be found in Supplementary Tables 1–3. All constructed yeast strains were validated by polymerase chain reaction (PCR) and confirmed by Sanger sequencing of the locus of interest. Bait strains for the DHFR-PCA experiments were constructed as follows. The genes of interest were fused at their genomic 3′ end by replacing the stop codon with a linker ([…]), the DHFR F[1,2] followed by a smaller linker (GGGGS), a 1× FLAG tag ([…]) and the NATMX4 resistance cassette via homologous recombination (all amplified from pAG25-DHFR[1,2]-linker-FLAG). The set of 615 prey strains (DHFR F[3] fusions in the BY4742 background) were retrieved from the Yeast Protein Interactome Collection[43] with the exception of 73 that were reconstructed (Supplementary Tables 1 and 2). Knockout strains were taken from the yeast knockout collection except for ABP1, BEM1, BZZ1, and SLA1, which were reconstructed by replacing the ORFs with the NATMX4 resistance cassette by homologous recombination in the BY4741 background.
Yeast SH3 domain genomic sequences were replaced by CRISPR–Cas9 genome editing. Each SH3 domain (as defined by the SMART database V8.0 except for Ysc84 SH3 (as defined by PROSITE), see Source Data for all SH3 sequences and Supplementary Table 1 for primers used) was specifically targeted by one gRNA[46]. Yeast competent cells were co-transformed with a pCAS plasmid (Addgene plasmid 60847[47]) expressing both the gRNA of interest and Streptococcus pyogenes Cas9[46] and a donor DNA sequence (stuffer) with 60 bp homology arms surrounding the SH3 DNA sequence. The Stuffer DNA was either PCR amplified or digested from a plasmid. The stuffer DNA sequence ([…]) codes for a small flexible linker ([…]) inspired by protein linkers used in structural biology[12],[13]. This type of linker is frequently used for fusing proteins without affecting the structure of the linked proteins.
The overall DHFR-PCA pipeline is based on Tarassov et al.[43] and the procedures have also been published as a visualized protocol. The screens were performed with robotically manipulated pin tools (BM5-SC1, S&P Robotics Inc.). First, the preys were cherry-picked from 96-well plates to omnitrays in a 384 format on YPD + HPH solid media. […]

ABP1 = experiment: DHFR-PCA on solid medium, bait ABP1 (Fig. 1B); assay type: cell-based, Saccharomyces cerevisiae; settings: bait ABP1, label = prey; 2-4 replicates
Text: Supplement 41467_2021_21873_MOESM8_ESM.xlsx, sheet "Fig1B" | column: medsize; medrep; Ratio; Score

[2] = bait SLA1-2, DHFR-PCA, Replicates 4 (2 for YCR009C, YDR388W)
[3] = bait SLA1-3, DHFR-PCA, Replicates 4 (2 for YCR009C, YDR388W, YIL033C)

Molecule	medrep (log2 median colony size normalized to plate background, PCA score) [1, 2]	Score ([1]; bait SLA1-2, label = prey)	Ratio (SH3-deleted/WT medrep) ([1]; bait SLA1-2, label = prey)	medrep (log2 median colony size normalized to plate background, PCA score) [1, 3]	Score ([1]; bait SLA1-3, label = prey)	medrep (log2 median colony size normalized to plate background, PCA score) (ABP1)	Ratio (SH3-deleted/WT medrep) ([1]; bait SLA1-3, label = prey)
B1	1.966	1	0.1	1.966	0	1.521	–
B2	1.546	1	0.1	1.546	0	1.889	–
B3	–	–	–	4.605	0	4.13	–
B4	2.073	1	0.1	2.073	0	3.81	–
B5	1.813	1	0.1	1.813	1	3.9733	0.1
